Test results: US20150329597A1

Columns and labels:
[1] = biological target: RSV F monomer (uncleaved RSV F Delp23 Furdel; Delp23 Furdel Truncated HIS construct) (respiratory syncytial virus); test: analytical HPLC-SEC of F monomer with 1:1 molar D25 Fab; monomer alone ~11.5 min
[2] = biological target: RSV F monomer (uncleaved RSV F Delp23 Furdel; Delp23 Furdel Truncated HIS construct) (respiratory syncytial virus); test: preparatory SEC of F monomer with D25 Fab at 1:1 molar ratio; monomer alone ~1.4 mls
[3] = biological target: RSV F trimerized-monomer: RSV Monomer (Delp23 Furdel) + HRA peptide (respiratory syncytial virus); test: preparatory SEC of the trimerized F fraction with about 10-fold excess D25 Fab; trimerized monomer alone ~1.2 mls
[4] = biological target: RSV F monomer (uncleaved RSV F Delp23 Furdel; Delp23 Furdel Truncated HIS construct) (respiratory syncytial virus); test: SPR (BIAcore), D25 Fab immobilised on CM5 chip, F monomer as analyte, 1:1 fit

For “D25 Fab harboring a HIS-tag and Strep-tag”, the Retention Time Wyatt SEC WTC-030S5 (mixture) [1] was 10.3 min, the Retention Volume Micro-Superdex 200 (mixture) [2] was 1.3 mls and the Retention Volume Micro-Superdex 200 (mixture) [3] was 1.1 mls. It also gave a Kd [4] of 0.053 nM, a koff [4] of 9.9e-06 s⁻¹ and a kon [4] of 190000 M⁻¹ s⁻¹.
